# Reference: patent publication US20170224836A1 (Novartis, published 2017)
# Read-outs that look alike come from different tables or passages of the source.
# T1: mouse CDH6 on cells (mouse, UniProt P97326 54-790)
# T1 sequence (looked up): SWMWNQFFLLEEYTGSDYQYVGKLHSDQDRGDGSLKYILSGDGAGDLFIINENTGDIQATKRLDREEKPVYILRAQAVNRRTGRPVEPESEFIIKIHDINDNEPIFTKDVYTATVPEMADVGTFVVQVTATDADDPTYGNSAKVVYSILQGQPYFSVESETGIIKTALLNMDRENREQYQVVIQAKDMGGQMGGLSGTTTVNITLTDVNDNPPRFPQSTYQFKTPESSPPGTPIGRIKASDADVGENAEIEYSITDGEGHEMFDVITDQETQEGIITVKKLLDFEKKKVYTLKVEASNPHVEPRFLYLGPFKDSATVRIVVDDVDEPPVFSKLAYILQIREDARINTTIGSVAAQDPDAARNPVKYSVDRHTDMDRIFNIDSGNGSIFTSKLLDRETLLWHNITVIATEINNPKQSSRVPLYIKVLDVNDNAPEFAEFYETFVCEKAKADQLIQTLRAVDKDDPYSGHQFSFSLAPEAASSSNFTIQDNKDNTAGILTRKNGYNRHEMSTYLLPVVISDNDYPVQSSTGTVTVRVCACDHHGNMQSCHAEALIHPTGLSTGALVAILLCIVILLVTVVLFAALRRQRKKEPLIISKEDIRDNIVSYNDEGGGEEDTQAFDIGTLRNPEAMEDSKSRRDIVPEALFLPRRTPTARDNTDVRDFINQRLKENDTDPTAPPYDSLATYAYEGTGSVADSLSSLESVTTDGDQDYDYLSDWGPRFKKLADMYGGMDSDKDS
# T2: human CDH6 on cells (human, UniProt P55285 54-790)
# T2 sequence: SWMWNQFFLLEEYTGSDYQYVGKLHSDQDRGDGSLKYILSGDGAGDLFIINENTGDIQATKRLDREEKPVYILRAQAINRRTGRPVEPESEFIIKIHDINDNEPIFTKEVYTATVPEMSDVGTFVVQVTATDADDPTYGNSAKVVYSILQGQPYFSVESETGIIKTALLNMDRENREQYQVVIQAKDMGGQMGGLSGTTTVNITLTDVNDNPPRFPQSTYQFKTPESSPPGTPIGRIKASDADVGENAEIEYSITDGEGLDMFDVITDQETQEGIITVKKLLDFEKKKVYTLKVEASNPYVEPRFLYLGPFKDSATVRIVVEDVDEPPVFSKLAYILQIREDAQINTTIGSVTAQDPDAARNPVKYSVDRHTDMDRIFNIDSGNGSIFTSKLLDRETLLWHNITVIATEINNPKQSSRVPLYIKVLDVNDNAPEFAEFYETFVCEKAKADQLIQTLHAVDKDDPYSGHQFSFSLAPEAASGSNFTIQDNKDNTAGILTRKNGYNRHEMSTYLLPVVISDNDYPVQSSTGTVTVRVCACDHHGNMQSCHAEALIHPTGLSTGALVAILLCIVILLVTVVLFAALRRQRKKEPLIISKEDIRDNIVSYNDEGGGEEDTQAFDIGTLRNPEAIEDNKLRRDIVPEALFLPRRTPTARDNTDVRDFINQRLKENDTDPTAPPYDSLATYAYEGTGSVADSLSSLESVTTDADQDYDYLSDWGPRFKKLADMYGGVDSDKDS
# T3: hCDH6aa54-615 APPavi (human, UniProt P55285 54-615)
# T3 sequence: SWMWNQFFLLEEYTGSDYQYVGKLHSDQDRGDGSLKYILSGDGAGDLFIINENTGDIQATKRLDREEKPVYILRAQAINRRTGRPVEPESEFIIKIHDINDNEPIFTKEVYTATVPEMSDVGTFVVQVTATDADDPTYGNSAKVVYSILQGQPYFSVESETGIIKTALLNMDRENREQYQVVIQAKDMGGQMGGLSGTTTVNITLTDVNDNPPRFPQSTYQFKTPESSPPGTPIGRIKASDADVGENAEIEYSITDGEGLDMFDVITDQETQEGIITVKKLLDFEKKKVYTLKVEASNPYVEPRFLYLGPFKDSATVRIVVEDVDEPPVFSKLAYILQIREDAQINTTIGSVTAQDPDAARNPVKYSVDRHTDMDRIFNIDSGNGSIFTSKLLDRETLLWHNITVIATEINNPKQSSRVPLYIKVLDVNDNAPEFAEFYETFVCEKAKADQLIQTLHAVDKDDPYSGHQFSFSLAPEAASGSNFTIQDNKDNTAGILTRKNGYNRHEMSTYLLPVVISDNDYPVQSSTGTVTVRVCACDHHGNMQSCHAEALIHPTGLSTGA
# B1: NOV0712 (antibody, human IgG1, kappa, V domains shown)
# VH: QVQLLESGGGLVQPGGSLRLSCAASGFTFSSHGMHWVRQAPGKGLEWVSVISGSGSNTGYADSVKGRFTISRDNSKNTLYLQMNSLRAEDTAVYYCARQWGSYAFDSWGQGTLVTVSS
# VL: DIQMTQSPSSLSASVGDRVTITCRASQSISSYLNWYQQKPGKAPKLLIYAVSTLQSGVPSRFSGSGSGTDFTLTISSLQPEDFATYYCQQSGTFPPTTFGQGTKVEIKR
# Key:
# mouse CDH6 on cells = biological target: T1, mouse CDH6 on cells; experiment: FACS on CHO-mouseCDH6 cells
# human CDH6 on cells = biological target: T2, human CDH6 on cells; experiment: FACS on CHO-TO-humanCDH6 cells plus tetracycline
# hCDH6aa54-615 APPavi [1] = biological target: T3, hCDH6aa54-615 APPavi; experiment: SPR binning
# hCDH6aa54-615 APPavi [2] = biological target: T3, hCDH6aa54-615 APPavi; experiment: SPR binning; remark: listed apart in the source
# hCDH6aa54-615 APPavi [3] = biological target: T3, hCDH6aa54-615 APPavi; experiment: SPR binning; remark: listed apart in the source
binder,measurement,setting,value
B1,EC50 (read off the curve),mouse CDH6 on cells,~1 nM
same,EC50 (read off the curve),human CDH6 on cells,~0.9 nM
same,response of secondary antibody on primary antibody-CDH6 complex,hCDH6aa54-615 APPavi [1],5.12
same,response of secondary antibody on primary antibody-CDH6 complex,hCDH6aa54-615 APPavi [2],-3.26
same,response of secondary antibody on primary antibody-CDH6 complex,hCDH6aa54-615 APPavi [3],16.5
